Laboratory results: patent US20240115603A1 (Zymeworks, published 2024)
Positions count from the first letter of the chain named.

Assays:
Assay in all cases: co-expression in Tni insect cells, pulldown via Twin Strep tag on G-CSF, SDS-PAGE
[1] = target: T1, G-CSFR(CRH)E site II design 8 with N-terminal His tag (human)
T1 construct: also called design #8 G-CSFR(CRH)E
T1 chain: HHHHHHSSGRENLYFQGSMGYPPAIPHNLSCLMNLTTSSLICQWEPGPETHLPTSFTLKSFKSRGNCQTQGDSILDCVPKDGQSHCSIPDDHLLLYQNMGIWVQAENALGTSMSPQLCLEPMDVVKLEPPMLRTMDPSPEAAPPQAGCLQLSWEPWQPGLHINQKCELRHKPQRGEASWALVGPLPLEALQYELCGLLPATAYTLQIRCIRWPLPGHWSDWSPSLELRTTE

[2] = target: T2, G-CSFR(CRH)E site II design 9 with N-terminal His tag (human)
T2 construct: also called design #9 G-CSFR(CRH)E
T2 chain: T1 chain with R64E, Q97D, E120D

[3] = target: T3, G-CSFR(CRH)E site II design 15 with N-terminal His tag (human)
T3 construct: also called design #15 G-CSFR(CRH)E
T3 chain: T1 chain with D90R, D91K, L94R, Y96V, E120R

[4] = target: T4, G-CSFR(CRH)E site II design 30 with N-terminal His tag (human, UniProt Q99062 120-331)
T4 construct: also called design #30 G-CSFR(CRH)E
T4 chain: T1 chain with D91K, E120D

[5] = target: T5, G-CSFR(CRH)E site II design 34 with N-terminal His tag (human, UniProt Q99062 120-331)
T5 construct: also called design #34 G-CSFR(CRH)E
T5 chain: T1 chain with R64E, D91K, E120D

[6] = target: T6, G-CSFR(CRH)E site II design 35 with N-terminal His tag (human)
T6 construct: also called design #35 G-CSFR(CRH)E
T6 chain: T1 chain with R64E, D90R, D91K, L94E, Q97E, E120D

[7] = target: T7, G-CSFR(Ig-CRH)E combination design 401 with N-terminal His tag (human, UniProt Q99062 25-331)
T7 construct: also called design 401 engineered receptor
T7 chain: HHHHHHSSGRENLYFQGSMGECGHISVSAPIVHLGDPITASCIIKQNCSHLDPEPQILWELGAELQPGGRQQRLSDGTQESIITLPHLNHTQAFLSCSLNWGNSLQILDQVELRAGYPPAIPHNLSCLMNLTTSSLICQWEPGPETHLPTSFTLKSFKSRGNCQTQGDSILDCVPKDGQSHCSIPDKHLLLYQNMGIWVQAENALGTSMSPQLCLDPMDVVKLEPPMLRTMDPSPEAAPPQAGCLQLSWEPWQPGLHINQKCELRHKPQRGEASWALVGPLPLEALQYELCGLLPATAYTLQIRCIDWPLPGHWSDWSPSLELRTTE

[8] = target: T8, G-CSFR(Ig-CRH)E combination design 402 with N-terminal His tag (human, UniProt Q99062 25-331)
T8 construct: also called design 402 engineered receptor
T8 chain: T7 chain with D186E, Q193E, D307E

Measured: binding result

B1: WT G-CSF with C-terminal Twin Strep tag (ligand)
chain: not shown
notes: also called G-CSFWT
no binding: all assays above
